Positions count from the first letter of the chain named.

Test [1] deals with T1, Soluble CD28-Ig (human, UniProt P10747 19-152, biotin-conjugated (NHS-biotin) in the labelled-ligand FACS assays).
T1 construct: extracellular domain; Bought from R&D Systems; also called sCD28-Ig; CD28-Ig Fc; not shown: Fc portion of human IgG1
The test is described as follows: two-colour FACS profile on transfected cells; score of preference for CD28-Ig over CTLA-4-Ig vs WT hB7-1.

The target in test [2] is T2, Soluble CTLA-4-Ig (human, UniProt P16410 36-161, FITC-conjugated in the two-colour FACS assays; unlabelled and detected with FITC goat anti-human IgG in the concentration-dependent assay).
T2 construct: extracellular domain; Bought from R&D Systems; also called sCTLA-4-Ig; CTLA-4-Ig Fc; not shown: Fc portion of human IgG1
T2 sequence (P16410 36-161): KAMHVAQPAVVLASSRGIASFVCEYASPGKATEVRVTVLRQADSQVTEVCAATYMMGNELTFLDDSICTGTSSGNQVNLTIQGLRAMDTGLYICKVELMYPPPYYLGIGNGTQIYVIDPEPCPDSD
Description: two-colour FACS profile on transfected cells; score of preference for CTLA-4-Ig over CD28-Ig vs WT hB7-1.

B1: Round 1 CD28BP-71 (ligand)
chain: ITPKSVTKRVKETVMLSCDYNTSTEELTSLRIYWQKDSKMVLAILPGKVQVWPEYKNRTITDMNDNPRIVILALRLSDSGTYTCVIQKPVLKGAYKLEHLASVRLMIRADFPVPTINDLGNPSPNIRRLICSTSGGFPRPHLYWLENGEELNATNTTLSQDPETKLYMISSELDFNMTSNHSFLCLVKYGDLTVSQTFYWQESKPTPSANQHLTWTIIIPVSAFGISVIIAVILTCLTCRNAAIRRQRRENEVEMQSCSQSP
notes: also called R1clone71; Clone 71
Turning to B1, the “Binding Score” value in test [1] was 1.

B2: Round 2 CD28B4-3 (ligand)
chain: B1 chain with A101T
Turning to B2, the “Binding Score” value in test [1] is 1.

B3: Round 1 CD28BP-126 (ligand)
chain: ITPKSVTKRVKETVMLSCDYSTSTEELTSLRIYWQKDSKMVLAILPGKVQVWPEYKNRTITDMNDNPRIVILALRLSDSGTYTCVIQKPDLKGAYKLEHLTSVRLMIRADFPVPTINDLGNPSPNIRRLICSTSGGFPRPHLYWLENGEELNATNTTVSQDPGTELYMISSELDFNVTNNHSIVCLIKYGELSVSQIFPWSKPKQEPPIDQLPFWVIIPVSGALVLTAVVLYCLACRHVARWKRTRRNEETVGTERLSPIYLGSAQSSG
notes: also called R1clone 126; Clone 126
For the molecule B3, the “Binding Score” value in test [1] was determined as 1.

B4: Round 2 CD28BP-13 (ligand)
chain: ITPKSVTKRVKETVMLSCDYSTSTEELTSLRIYWQKDSKMVLAILPGKVQVWPEYKNRTITDMNDNPRIVILALRLSDSGTYTCVIQKPVLKGAYKLEHLASVRLMIRADFPVPTINDLGNPSPNIRRLICSTSGGFPEPRLAWMEDGEELNAVNTTVDQDLDTELYSVSSELDFNVTNNHSIVCLIKYGELSVSQIFPWSKPKQEPPIDQLPFWVIIPVSGALVLTAVVLYCLACRHVARWKRTRRNEETVGTERLSPIYLGSAQSSG
Consider B4, for which the “Binding Score” value in test [1] was determined as 2.

B5: Round 2 CD28F7-2 (ligand)
chain: B4 chain
Turning to B5, in test [1], the “Binding Score” value was determined as 2.

B6: Round 2 CD28E10-6 (ligand)
chain: B3 chain with S21N, D90V, T101A, V158L, G163E
In the case of B6, the “Binding Score” value in test [1] turned out to be 1.

B7: Round 2 CD28G2-8 (ligand)
chain: B3 chain with S21N, D90V, T101A, T115S
With B7, in test [1], the “Binding Score” value worked out at 1.

B8: Round 2 CD28F3-6 (ligand)
chain: B3 chain with V158L, G163E, E165K
On to B8, for which the “Binding Score” value in test [1] is 0.

B9: Round 2 CD28A6-1 (ligand)
chain: B3 chain with S21N, D90V, T101A, G163E, E165K, W215R, V229I
Regarding B9, the “Binding Score” value in test [1] was found to be 1.

B10: Round 2 CD28C11-5 (ligand)
chain: B3 chain with S21N, D90V, V184A
Take B10: in test [1], the “Binding Score” value turned out to be 2.

B11: Round 2 CD28E2-4 (ligand)
chain: B3 chain with S79K, D90V, T101A
B11: the “Binding Score” value in test [1] is 1.

B12: Round 2 CD28D2-9 (ligand)
chain: B3 chain with S21N, D90V, V158L, G163E
Take B12: the “Binding Score” value in test [1] was determined as 1.

B13: Round 2 CD28C8-6 (ligand)
chain: B3 chain with S21N, D90V, T101A, D174G
For B13, in test [1], the “Binding Score” value came to 2.

B14: Round 2 CD28H11-3 (ligand)
chain: B3 chain with S21N, D90V, T101A, V158L, G163E, E165K, V229A
As to B14, the “Binding Score” value in test [1] was 1.

B15: Round 2 CD28C6-1 (ligand)
chain: B3 chain with D90V, T101A, V239G
For B15, the “Binding Score” value in test [1] came out at 1.

B16: Round 2 CD28D8-9 (ligand)
chain: B3 chain with D90V
Regarding B16, the “Binding Score” value in test [1] was found to be 1.

B17: Round 2 CD28A8-4 (ligand)
chain: B3 chain with S21N, D90V
For the molecule B17, the “Binding Score” value in test [1] turned out to be 1.

B18: Round 2 CD28E9-6 (ligand)
chain: B3 chain with S21N, S79K, T101A
In the case of B18, in test [1], the “Binding Score” value was found to be 0.

B19: Round 2 CD28BP-2 (ligand)
chain: B3 chain with D90V, T101A, V158L, G163E, E165K, C233R, L234P
B19: the “Binding Score” value in test [1] came out at 2.

B20: Round 2 CD28B2-8 (ligand)
chain: B3 chain with S21N, S79K, D90V, T101A
B20: in test [1], the “Binding Score” value was found to be 1.

B21: Round 2 CD28BP-4 (ligand)
chain: B3 chain with S21N, D90V, T101A, Y143C
Consider B21, for which the “Binding Score” value in test [1] stood at 2.

B22: Round 2 CD28BP-5 (ligand)
chain: B3 chain with S79K, I86V, D90V
As for B22, the “Binding Score” value in test [1] was 2.

B23: Round 2 CD28E5-2 (ligand)
chain: B3 chain with S21N, T101A, V158L, G163E, E165K, H181R
Regarding B23, the “Binding Score” value in test [1] came out at 0.

B24: Round 2 CD28BP-16 (ligand)
chain: B3 chain with S21N, D90V, T227A
For the molecule B24, the “Binding Score” value in test [1] was determined as 2.

B25: Round 2 CD28A4-5* (ligand)
chain: B3 chain with S21N, D90V, V158L, G163E, E165K
Turning to B25, the “Binding Score” value in test [1] is 1.

B26: Round 2 CD28F8-4 (ligand)
chain: B3 chain with D90V, T101A, V158L, G163E, E165K
With B26, in test [1], the “Binding Score” value came to 1.

B27: Round 2 CD28A6-9 (ligand)
chain: B3 chain with S21N, D90V, T101A, W215L
Take B27: the “Binding Score” value in test [1] was 1.

B28: Round 2 CTLA4BP-5x2-11d (ligand)
chain: VIHVTKEVKEVATLSCGHNVSVEELAQTRIHWQKEKKMVLTMMSGDMNIWPEYKNRTIFDITNNLSIVILALRPSDEGTYECVVLKYEKDAFKREHLAEVMLSVKADFPTPSITDFEIPPSNIRRIICSTSGGFPEPHLFWLENGEELNAINTTVSQDPETELYTVSSKLDFNMTTDRSFVCLIKYGHLRVNQTFNWNTPKQEHFPDNLLPSWAITLISANGIFVICCLTYCFAPRCRERKSNETLRRESVRPV
As for B28, in test [2], the “Binding Score” value amounted to 2.

These data come from US20050154189A1 (MAXYGEN, published 2005).
